# T1: SCOH-NANOG2 pCLS4418 (single-chain I-CreI variant)
# T1 chain: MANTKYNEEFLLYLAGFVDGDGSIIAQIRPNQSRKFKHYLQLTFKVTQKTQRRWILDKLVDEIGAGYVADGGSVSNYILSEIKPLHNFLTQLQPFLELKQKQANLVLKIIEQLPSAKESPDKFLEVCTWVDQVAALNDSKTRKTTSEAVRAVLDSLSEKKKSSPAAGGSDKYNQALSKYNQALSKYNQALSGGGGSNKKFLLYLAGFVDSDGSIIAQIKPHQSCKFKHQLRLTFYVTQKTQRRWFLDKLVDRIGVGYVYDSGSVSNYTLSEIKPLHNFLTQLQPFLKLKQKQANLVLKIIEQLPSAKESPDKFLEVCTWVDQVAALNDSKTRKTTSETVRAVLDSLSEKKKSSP
# T2: SCOH-NANOG2 pCLS4415 (single-chain I-CreI variant)
# T2 chain: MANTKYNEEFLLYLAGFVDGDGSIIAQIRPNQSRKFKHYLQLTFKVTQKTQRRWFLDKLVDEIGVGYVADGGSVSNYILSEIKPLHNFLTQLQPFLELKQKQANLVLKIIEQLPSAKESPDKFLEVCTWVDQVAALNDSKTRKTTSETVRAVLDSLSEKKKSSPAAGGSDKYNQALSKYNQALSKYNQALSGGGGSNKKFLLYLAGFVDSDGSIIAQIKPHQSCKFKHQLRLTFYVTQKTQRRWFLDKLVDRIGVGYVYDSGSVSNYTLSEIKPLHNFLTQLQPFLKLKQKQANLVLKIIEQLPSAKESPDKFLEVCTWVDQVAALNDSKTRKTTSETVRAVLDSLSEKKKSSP
# T3: SCOH-NANOG2 pCLS4416 (single-chain I-CreI variant)
# T3 chain: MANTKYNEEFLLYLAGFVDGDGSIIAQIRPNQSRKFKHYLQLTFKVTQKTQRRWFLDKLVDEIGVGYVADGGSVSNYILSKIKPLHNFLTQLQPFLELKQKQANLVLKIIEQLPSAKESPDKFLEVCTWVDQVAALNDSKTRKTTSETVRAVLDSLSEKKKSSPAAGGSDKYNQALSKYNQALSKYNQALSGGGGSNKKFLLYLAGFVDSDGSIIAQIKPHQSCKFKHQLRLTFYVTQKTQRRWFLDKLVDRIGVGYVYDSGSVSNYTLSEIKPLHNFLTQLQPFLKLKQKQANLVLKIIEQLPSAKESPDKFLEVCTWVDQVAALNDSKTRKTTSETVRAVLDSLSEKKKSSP
# Experiments:
# Assay in all cases: cell_activity; 293H endogenous locus, 5 ug plasmid
# Conditions in all cases: tags: RM2 linker between monomers
# [1] = target: T1, SCOH-NANOG2 pCLS4418 (single-chain …)
# Method: (§1) Single Chain I-CreI variants targeting respectively NANOG2 and NANOG4 targets were cloned in the pCLS1853 plasmid. The resulting plasmids, respectively pCLS4415, pCLS4416, pCLS4417, pCLS4418, pCLS4421 and pCLS4422 were used for this experiment. The day of […], cells from the human embryonic kidney cell line, 293-H (Invitrogen) were seeded in a 10 cm dish at density of 1×10⁶ cells/dish. The following day, cells were transfected with 10 μg of total DNA corresponding to the combination of an empty plasmid with a meganuclease-expressing plasmid using lipofectamine (Invitrogen). Plasmid ratio (empty/meganuclease plasmid) used were 10 μg/0 μg, 9 μg/1 μg, 5 μg/5 μg 0 μg/10 μg. 48 hours after transfection, cells were collected and diluted (dilution 1/20) in fresh culture medium. After 7 days of culture, cells were collected and genomic DNA extracted. 300 ng of genomic DNA were used to amplify the endogenous locus surrounding the meganuclease cleavage site by PCR amplification.
# (§2) PCR amplification was performed to obtain a fragment flanked by specific adaptator sequences (SEQ ID NO 63; 5′-[…]-3′ and SEQ ID NO 64; 5′-[…]-3′) provided by the company offering sequencing service (GATC Biotech AG, Germany) on the 454 sequencing system (454 Life Sciences). An average of 18,000 sequences was obtained from pools of 2 amplicons (500 ng each). After sequencing, different samples were identified based on barcode sequences introduced in the first of the above adaptators.
# (§3) Sequences were then analyzed for the presence of insertions or deletions events (InDel) in the cleavage site of each NANOG target.
# [2] = target: T2, SCOH-NANOG2 pCLS4415 (single-chain …)
# Method: as §1, §2, §3
# [3] = target: T3, SCOH-NANOG2 pCLS4416 (single-chain …)
# Method: as §1, §2, §3
binder,measurement,setting,value
NANOG2 (NANOG2.1) target (dsDNA) DNA 1: CCAACATCCTGAACCTCAGCTACA DNA 2: TGTAGCTGAGGTTCAGGATGTTGG,activity,[1],0.317 % InDel
same,activity,[2],0.276 % InDel
same,activity,[3],0.222 % InDel

# From patent US20130189759, “MEGANUCLEASES VARIANTS CLEAVING A DNA TARGET SEQUENCE IN THE NANOG GENE AND USES THEREOF” (Cellectis, published 2013)
